Laboratory results as given in the supplement of paper PMC10567573.

B1: TMEM106C (parent)
chain: SEQLVNFTGKAEMGGPFSYVYFFC

Variants of: B1
Experiment: protein stability index of a GFP-peptide fusion (GPS, HEK-293T) (PSI 1-6); higher = more stable
Details: c terminus: a fixed tail appended
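Note: lentivirally expressed fusions sorted by FACS into six bins by GFP to DsRed ratio, PSI derived from sequencing read proportions per bin multiplied by bin number.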

Point of comparison: STQLVNFTGKAEMGGPFSYVYFFC [E2T], protein stability index 2.64. Against it:
- SEQWVNFTGKAEMGGPFSYVYFFC [L4W] — lower, 2.2
- SEQKVNFTGKAEMGGPFSYVYFFC [L4K] — higher, 3.49
- SEQTVNFTGKAEMGGPFSYVYFFC [L4T] — higher, 3.41
- SEQIVNFTGKAEMGGPFSYVYFFC [L4I] — higher, 2.74
- SEQCVNFTGKAEMGGPFSYVYFFC [L4C] — lower, 1.94
- SEQNVNFTGKAEMGGPFSYVYFFC [L4N] — higher, 3.12
- SEQHVNFTGKAEMGGPFSYVYFFC [L4H] — higher, 4.32
- SEQSVNFTGKAEMGGPFSYVYFFC [L4S] — lower, 2.11
- SEQYVNFTGKAEMGGPFSYVYFFC [L4Y] — higher, 3.31
- SEQPVNFTGKAEMGGPFSYVYFFC [L4P] — lower, 2.07
- SEQAVNFTGKAEMGGPFSYVYFFC [L4A] — lower, 2.54
- SEQFVNFTGKAEMGGPFSYVYFFC [L4F] — higher, 2.75
- SEQQVNFTGKAEMGGPFSYVYFFC [L4Q] — lower, 1.93
- SEQEVNFTGKAEMGGPFSYVYFFC [L4E] — lower, 2.62
- SEQDVNFTGKAEMGGPFSYVYFFC [L4D] — lower, 2.39
- AEQLVNFTGKAEMGGPFSYVYFFC [S1A] — lower, 2.51
- VEQLVNFTGKAEMGGPFSYVYFFC [S1V] — higher, 3.6
- REQLVNFTGKAEMGGPFSYVYFFC [S1R] — higher, 3.55
- DEQLVNFTGKAEMGGPFSYVYFFC [S1D] — lower, 1.62
- YEQLVNFTGKAEMGGPFSYVYFFC [S1Y] — lower, 1.72
- WEQLVNFTGKAEMGGPFSYVYFFC [S1W] — lower, 2.49
- FEQLVNFTGKAEMGGPFSYVYFFC [S1F] — higher, 2.65
- LEQLVNFTGKAEMGGPFSYVYFFC [S1L] — higher, 3.63
- MEQLVNFTGKAEMGGPFSYVYFFC [S1M] — higher, 3.28
- CEQLVNFTGKAEMGGPFSYVYFFC [S1C] — lower, 2.6
- TEQLVNFTGKAEMGGPFSYVYFFC [S1T] — higher, 3.09
- HEQLVNFTGKAEMGGPFSYVYFFC [S1H] — higher, 3.23
- KEQLVNFTGKAEMGGPFSYVYFFC [S1K] — higher, 2.67
- QEQLVNFTGKAEMGGPFSYVYFFC [S1Q] — lower, 2.63
- GEQLVNFTGKAEMGGPFSYVYFFC [S1G] — higher, 3.79
- EEQLVNFTGKAEMGGPFSYVYFFC [S1E] — higher, 2.98
- IEQLVNFTGKAEMGGPFSYVYFFC [S1I] — higher, 3.37
- NEQLVNFTGKAEMGGPFSYVYFFC [S1N] — higher, 2.85
- PEQLVNFTGKAEMGGPFSYVYFFC [S1P] — higher, 2.9
- SEQLVCFTGKAEMGGPFSYVYFFC [N6C] — higher, 3.24
- SEQLVDFTGKAEMGGPFSYVYFFC [N6D] — higher, 2.88
- SEQLVAFTGKAEMGGPFSYVYFFC [N6A] — lower, 2.28
- SEQLVEFTGKAEMGGPFSYVYFFC [N6E] — higher, 3.28
- SEQLQNFTGKAEMGGPFSYVYFFC [V5Q] — higher, 2.89
- SEQLDNFTGKAEMGGPFSYVYFFC [V5D] — higher, 3.94
- SEQLCNFTGKAEMGGPFSYVYFFC [V5C] — higher, 2.67
- SEQLGNFTGKAEMGGPFSYVYFFC [V5G] — lower, 1.26
- SEQLYNFTGKAEMGGPFSYVYFFC [V5Y] — higher, 3.6
- SEQLRNFTGKAEMGGPFSYVYFFC [V5R] — higher, 2.8
- SEQLTNFTGKAEMGGPFSYVYFFC [V5T] — lower, 1.81
- SEQLANFTGKAEMGGPFSYVYFFC [V5A] — higher, 2.95
- SEQLENFTGKAEMGGPFSYVYFFC [V5E] — lower, 1.79
- SEQLHNFTGKAEMGGPFSYVYFFC [V5H] — lower, 2.52
- SEQLPNFTGKAEMGGPFSYVYFFC [V5P] — higher, 4.22
- SEQLKNFTGKAEMGGPFSYVYFFC [V5K] — higher, 3.06
- SEQLWNFTGKAEMGGPFSYVYFFC [V5W] — higher, 4.3
- SEQLFNFTGKAEMGGPFSYVYFFC [V5F] — higher, 2.76
- SEQLNNFTGKAEMGGPFSYVYFFC [V5N] — lower, 2.58
- SEQLSNFTGKAEMGGPFSYVYFFC [V5S] — lower, 2.45
- SEQLMNFTGKAEMGGPFSYVYFFC [V5M] — higher, 2.83
- SEQLLNFTGKAEMGGPFSYVYFFC [V5L] — higher, 3.05
- SEQLINFTGKAEMGGPFSYVYFFC [V5I] — higher, 3.42
- SEDLVNFTGKAEMGGPFSYVYFFC [Q3D] — higher, 3.39
- SEFLVNFTGKAEMGGPFSYVYFFC [Q3F] — higher, 2.76
- SELLVNFTGKAEMGGPFSYVYFFC [Q3L] — higher, 3.56
- SEMLVNFTGKAEMGGPFSYVYFFC [Q3M] — lower, 2.52
- SECLVNFTGKAEMGGPFSYVYFFC [Q3C] — higher, 2.98
- SEYLVNFTGKAEMGGPFSYVYFFC [Q3Y] — higher, 2.99
- SEILVNFTGKAEMGGPFSYVYFFC [Q3I] — higher, 2.94
- SEVLVNFTGKAEMGGPFSYVYFFC [Q3V] — higher, 3.16
- SERLVNFTGKAEMGGPFSYVYFFC [Q3R] — lower, 2.4
- SEGLVNFTGKAEMGGPFSYVYFFC [Q3G] — higher, 3.44
- SENLVNFTGKAEMGGPFSYVYFFC [Q3N] — higher, 3.22
- SEHLVNFTGKAEMGGPFSYVYFFC [Q3H] — higher, 3.21
- SEKLVNFTGKAEMGGPFSYVYFFC [Q3K] — higher, 2.79
- SESLVNFTGKAEMGGPFSYVYFFC [Q3S] — higher, 2.73
- SETLVNFTGKAEMGGPFSYVYFFC [Q3T] — higher, 2.79
- SEELVNFTGKAEMGGPFSYVYFFC [Q3E] — lower, 2.57
- SEWLVNFTGKAEMGGPFSYVYFFC [Q3W] — higher, 3.02
- SEALVNFTGKAEMGGPFSYVYFFC [Q3A] — lower, 1.85
- SSQLVNFTGKAEMGGPFSYVYFFC [E2S] — lower, 1.47
- SQQLVNFTGKAEMGGPFSYVYFFC [E2Q] — higher, 2.65
- SWQLVNFTGKAEMGGPFSYVYFFC [E2W] — higher, 2.95
- SNQLVNFTGKAEMGGPFSYVYFFC [E2N] — higher, 3.28
- SMQLVNFTGKAEMGGPFSYVYFFC [E2M] — higher, 3.48
- SAQLVNFTGKAEMGGPFSYVYFFC [E2A] — lower, 2.44
- SPQLVNFTGKAEMGGPFSYVYFFC [E2P] — higher, 3.82
- SLQLVNFTGKAEMGGPFSYVYFFC [E2L] — lower, 1.91
- SGQLVNFTGKAEMGGPFSYVYFFC [E2G] — higher, 2.88
- SIQLVNFTGKAEMGGPFSYVYFFC [E2I] — higher, 3
- SCQLVNFTGKAEMGGPFSYVYFFC [E2C] — lower, 2.18
- SFQLVNFTGKAEMGGPFSYVYFFC [E2F] — higher, 3.3
- SDQLVNFTGKAEMGGPFSYVYFFC [E2D] — higher, 3.75
- SVQLVNFTGKAEMGGPFSYVYFFC [E2V] — higher, 2.69
- SKQLVNFTGKAEMGGPFSYVYFFC [E2K] — lower, 2.29
- SHQLVNFTGKAEMGGPFSYVYFFC [E2H] — higher, 2.8
- SRQLVNFTGKAEMGGPFSYVYFFC [E2R] — higher, 2.85
- SYQLVNFTGKAEMGGPFSYVYFFC [E2Y] — lower, 2
